Reference: publication PMC4763541, “Pitchfork and Gprasp2 Target Smoothened to the Primary Cilium for Hedgehog Pathway Activation” (PLoS ONE, 2016)

Molecular target: T1, full-length hGPRASP2, purified recombinant (human, UniProt Q96D09 1-838)
T1 construct: human G protein-coupled receptor associated sorting protein 2 (GPRASP2), full length, cloned into pETM-11; source: E. coli Rosetta2 (DE3), purified (IMAC, TEV cleavage, second IMAC, SEC on Superdex 200); not shown: His6, N-terminal, cleaved
T1 sequence (looked up): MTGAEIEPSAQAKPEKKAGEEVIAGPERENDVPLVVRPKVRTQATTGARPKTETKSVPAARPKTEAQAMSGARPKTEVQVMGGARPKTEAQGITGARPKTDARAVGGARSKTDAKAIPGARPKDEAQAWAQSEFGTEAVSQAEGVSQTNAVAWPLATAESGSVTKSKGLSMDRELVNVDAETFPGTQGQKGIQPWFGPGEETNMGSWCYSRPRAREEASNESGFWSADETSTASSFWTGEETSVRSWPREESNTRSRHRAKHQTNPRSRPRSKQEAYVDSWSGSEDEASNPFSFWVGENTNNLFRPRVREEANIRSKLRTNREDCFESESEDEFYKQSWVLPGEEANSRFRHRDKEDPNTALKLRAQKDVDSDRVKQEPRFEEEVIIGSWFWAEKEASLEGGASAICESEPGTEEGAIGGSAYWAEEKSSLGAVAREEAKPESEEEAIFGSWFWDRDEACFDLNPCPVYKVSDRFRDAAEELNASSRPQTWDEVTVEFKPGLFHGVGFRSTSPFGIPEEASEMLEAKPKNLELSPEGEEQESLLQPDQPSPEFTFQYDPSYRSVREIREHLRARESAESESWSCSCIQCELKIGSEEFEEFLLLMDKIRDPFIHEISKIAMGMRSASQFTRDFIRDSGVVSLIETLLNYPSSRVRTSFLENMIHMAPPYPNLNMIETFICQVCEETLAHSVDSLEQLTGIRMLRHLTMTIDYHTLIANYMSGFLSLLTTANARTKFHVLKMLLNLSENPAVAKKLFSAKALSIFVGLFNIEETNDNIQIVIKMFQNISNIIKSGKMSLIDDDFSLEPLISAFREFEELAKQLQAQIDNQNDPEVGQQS
Test: NMR titration; 1D 1H NMR (…), 800 MHz, 298 K; 100 μM peptide before and after addition of hGPRASP2 to 4 μM (1:25 hGPRASP2:peptide); 50 mM Tris.HCl pH 8, 300 mM NaCl, 0.01% 1-thioglycerol; line broadening and loss of intensity of the peptide signals
Details: both partners purified

KATLLIWRRTWCRL (peptide, UniProt Q99835 539-552, looked up, source: synthetic peptide (PSL GmbH)) [hSMO-WT peptide (human SMO aa 539-552)]
binding result: binds
